Where “and” joins values, the source holds several entries; their conditions need not be identical. Equal entries are not always repeated.
Target: nitrogenase MoFe-protein (Azotobacter vinelandii) (UniProt P07328)
Test: cryo-EM structure; single particle cryoEM of the ADP-AlF4- stabilized complex of the two nitrogenase proteins; grids prepared anaerobically in the vinyl tent; carbon-layered grids

Chain of UniProt P07328 (P07328 whole entry, chain 1 of 2): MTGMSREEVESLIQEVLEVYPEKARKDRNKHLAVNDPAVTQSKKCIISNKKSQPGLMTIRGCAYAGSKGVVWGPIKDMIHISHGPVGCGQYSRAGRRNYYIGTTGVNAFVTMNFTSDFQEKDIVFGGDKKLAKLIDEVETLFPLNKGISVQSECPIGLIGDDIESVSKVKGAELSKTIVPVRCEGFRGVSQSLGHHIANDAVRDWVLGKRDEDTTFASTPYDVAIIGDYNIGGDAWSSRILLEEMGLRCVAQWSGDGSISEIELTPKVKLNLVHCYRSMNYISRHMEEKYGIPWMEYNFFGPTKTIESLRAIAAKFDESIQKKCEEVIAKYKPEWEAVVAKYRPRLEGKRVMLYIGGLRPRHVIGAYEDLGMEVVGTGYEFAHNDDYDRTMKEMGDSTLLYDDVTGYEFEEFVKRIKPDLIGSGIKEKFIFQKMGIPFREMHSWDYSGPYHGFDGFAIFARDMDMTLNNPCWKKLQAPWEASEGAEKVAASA
Chain of UniProt P07328 (P07329 whole entry, chain 2 of 2, further chain): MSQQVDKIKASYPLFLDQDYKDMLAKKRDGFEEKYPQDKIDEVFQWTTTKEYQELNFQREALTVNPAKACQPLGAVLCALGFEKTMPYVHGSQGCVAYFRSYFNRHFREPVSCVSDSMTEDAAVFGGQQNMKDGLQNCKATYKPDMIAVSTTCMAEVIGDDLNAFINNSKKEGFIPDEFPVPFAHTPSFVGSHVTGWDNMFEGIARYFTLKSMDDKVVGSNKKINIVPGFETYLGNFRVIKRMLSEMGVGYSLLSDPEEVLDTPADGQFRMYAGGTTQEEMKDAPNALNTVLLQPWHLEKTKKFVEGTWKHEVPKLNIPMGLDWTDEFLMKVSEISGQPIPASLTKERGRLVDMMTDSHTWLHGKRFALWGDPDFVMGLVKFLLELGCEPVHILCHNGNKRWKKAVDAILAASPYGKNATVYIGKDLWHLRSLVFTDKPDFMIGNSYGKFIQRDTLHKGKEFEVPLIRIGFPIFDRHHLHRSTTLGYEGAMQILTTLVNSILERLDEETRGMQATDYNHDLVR

- stoichiometry N (Fe-protein:MoFe-protein): 2 and 1
Substance: nitrogenase Fe-protein (enzyme)

Source: publication PMC11528890
